Source: patent publication US20250333467A1 (TECTONIC OPERATING, published 2025)
Numbering of substitutions follows the chain as printed.

T1: human RXFP1 (human, UniProt Q9HBX9 1-757)
T1 sequence (looked up): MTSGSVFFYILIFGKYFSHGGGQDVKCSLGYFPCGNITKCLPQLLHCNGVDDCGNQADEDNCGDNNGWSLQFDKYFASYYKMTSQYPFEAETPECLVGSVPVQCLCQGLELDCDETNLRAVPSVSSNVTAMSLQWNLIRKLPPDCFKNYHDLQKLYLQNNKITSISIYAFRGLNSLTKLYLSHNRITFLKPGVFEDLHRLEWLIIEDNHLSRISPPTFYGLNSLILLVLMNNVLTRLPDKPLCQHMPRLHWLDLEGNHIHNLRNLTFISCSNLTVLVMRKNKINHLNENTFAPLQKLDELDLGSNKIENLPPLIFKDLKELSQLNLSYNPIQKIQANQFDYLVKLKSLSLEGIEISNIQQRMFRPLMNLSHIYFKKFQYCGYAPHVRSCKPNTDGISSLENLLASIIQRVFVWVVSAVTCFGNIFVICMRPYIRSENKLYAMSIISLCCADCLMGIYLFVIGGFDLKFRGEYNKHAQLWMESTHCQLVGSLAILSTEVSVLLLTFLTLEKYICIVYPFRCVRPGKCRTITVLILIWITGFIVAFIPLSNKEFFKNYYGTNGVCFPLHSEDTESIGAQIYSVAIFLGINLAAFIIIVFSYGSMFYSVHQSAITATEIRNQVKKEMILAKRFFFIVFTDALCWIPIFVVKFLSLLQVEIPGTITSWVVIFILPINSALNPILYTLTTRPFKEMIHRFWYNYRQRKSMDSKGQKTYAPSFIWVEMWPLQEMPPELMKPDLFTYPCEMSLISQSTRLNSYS

B1: SEQ ID NO: 367 (Fc fusion)
chain: DKTHTCPPCPAPEAAGGPSVFLFPPKPKDTLMISRTPEVTCVVVDVSHEDPEVKFNWYVDGVEVHNAKTKPREEQYNSTYRVVSVLTVLHQDWLNGKEYKCKVSNKALAAPIEKTISKAKGQPREPQVYTLPPSRDELTKNQVSLTCLVKGFYPSDIAVEWESNGQPENNYKTTPPVLDSDGSFFLYSKLTVDKSRWQQGNVFSCSVLHEALHSHYTQKSLSLSPGGGSDSWMEEVIKLCGRELVRAQIAICGKSTGGEGGGEEGGGEGGQLYSALANKCCHVGCTKRSLARFC
B2: SEQ ID NO: 90 (Fc fusion)
chain: DKTHTCPPCPAPEAAGGPSVFLFPPKPKDTLMISRTPEVTCVVVDVSHEDPEVKFNWYVDGVEVHNAKTKPREEQYNSTYRVVSVLTVLHQDWLNGKEYKCKVSNKALAAPIEKTISKAKGQPREPQVYTLPPSRDELTKNQVSLTCLVKGFYPSDIAVEWESNGQPENNYKTTPPVLDSDGSFFLYSKLTVDKSRWQQGNVFSCSVLHEALHSHYTQKSLSLSPGKGGSDSWQEEVIKLCGRELVRAQIAICGKSTASDAAGAQAQAGARQLYSALANKCCHVGCTKRSLAQFC
B3: SEQ ID NO: 96 (Fc fusion)
chain: B2 chain with K227E, Q265D
B4: SEQ ID NO: 97 (Fc fusion)
chain: B2 chain with K227E
B5: SEQ ID NO: 99 (Fc fusion)
chain: B2 chain with K227E, K255Q, Q265N, Q267D
B6: SEQ ID NO: 100 (Fc fusion)
chain: B2 chain with K227E, K255Q, Q265D, Q267D
B7: SEQ ID NO: 101 (Fc fusion)
chain: B2 chain with K227E, K255Q, Q265E, Q267E
B8: SEQ ID NO: 102 (Fc fusion)
chain: B2 chain with K227E, K255Q, Q267D
B9: SEQ ID NO: 103 (Fc fusion)
chain: B2 chain with K227E, K255Q, Q265D
B10: SEQ ID NO: 106 (Fc fusion)
chain: B2 chain with K227E, Q265N, Q267D, R289Q
B11: SEQ ID NO: 108 (Fc fusion)
chain: B2 chain with K227E, Q265E, Q267E, R289Q
B12: SEQ ID NO: 110 (Fc fusion)
chain: B2 chain with K227E, Q265D, R289Q
B13: SEQ ID NO: 112 (Fc fusion)
chain: B2 chain with K227E, K255Q, Q265D, Q267N, R289Q
B14: SEQ ID NO: 113 (Fc fusion)
chain: B2 chain with K227E, K255Q, Q265N, Q267D, R289Q
B15: SEQ ID NO: 116 (Fc fusion)
chain: B2 chain with K227E, K255Q, Q267D, R289Q
B16: SEQ ID NO: 117 (Fc fusion)
chain: B2 chain with K227E, K255Q, Q265D, R289Q

Experiments:
human RXFP1 [1] = molecular target: T1, human RXFP1; assay: cell-based or functional assay
human RXFP1 [2] = molecular target: T1, human RXFP1; assay: cell-based or functional assay; remark: listed apart in the source

Binder	Potency (cAMP, transient hRXFP1 in HEK293) (human RXFP1 [1])	Transient HEK293 hRXFP1 cAMP EC50 (human RXFP1 [2])	THP1 (endogenous RXFP1) cAMP EC50 (human RXFP1 [2])
B1	140 nM	~150 nM	–
B2	0.6 nM	0.6 nM	4.4 nM
B3	9.9 nM	–	–
B4	1.3 nM	–	–
B5	9.4 nM	–	–
B6	28.7 nM	–	–
B7	29.4 nM	–	–
B8	7.5 nM	–	–
B9	12.2 nM	–	–
B10	14 nM	–	–
B11	35.2 nM	–	–
B12	17.2 nM	–	–
B13	24.8 nM	–	–
B14	26 nM	–	–
B15	25.9 nM	–	–
B16	31.2 nM	–	–
